Test results taken from patent publication US10556007B2, “Antibody which binds Lrg1 and methods of use” (UCL Business PLC, priority 2015, dated 2020).
“Also recorded” adds a separate entry of the source.

Assays:
human Lrg1 [1] = target: T1, human Lrg1 (Homo sapiens, UniProt P02750); test: Biacore affinity and binding kinetics, human Lrg1
T1 sequence (P02750 36-347): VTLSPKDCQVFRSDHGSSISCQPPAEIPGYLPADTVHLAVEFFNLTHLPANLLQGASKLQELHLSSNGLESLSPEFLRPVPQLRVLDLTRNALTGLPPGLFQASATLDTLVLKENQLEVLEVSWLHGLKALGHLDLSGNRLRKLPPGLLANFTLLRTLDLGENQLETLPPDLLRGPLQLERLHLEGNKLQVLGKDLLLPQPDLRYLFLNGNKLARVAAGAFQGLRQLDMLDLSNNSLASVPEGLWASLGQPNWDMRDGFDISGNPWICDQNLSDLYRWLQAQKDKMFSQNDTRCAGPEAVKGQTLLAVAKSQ
Description: Biacore was used to measure the binding affinity, association and dissociation constants of the antibodies to human Lrg1. Human Lrg1 was immobilized on the Biacore chip, and mAbs passed across at concentrations ranging from 20-100 nM. A cut off binding affinity value of 2 nM was used to isolate possible candidate antibodies for further investigation.
The four lead mAbs were examined using Biacore, in experiments in which human Lrg1 was immobilized on the chip, and mAbs passed across at concentrations ranging from 20-100 nM. The Table below summarises the kinetic data.

[2] = test system: Lrg1 (rhLrg1 and liver extracts from mouse, rat, rabbit, monkey, dog and cat); test: Species cross-reactivity ELISA on liver extracts; format: binding; conditions: mAb at 100 nM
Description: Species cross-reactivity was carried out by ELISA in a protocol in which multiwall plates were coated with rhLrg1, and liver extracts from mouse, rat, rabbit, monkey, dog and cat.

human Lrg1 [3] = target: T1, human Lrg1; test: Western blot specificity for human Lrg1; format: binding; conditions: conditioned medium from MDA-MB cells, human vitreous, whole human serum
Description: To evaluate the specificity of the lead mAbs for human Lrg1 western blot analysis of each was performed against conditioned medium from the MDA-MB human tumour cell line, samples of human vitreous humour, and samples of whole human serum.

[4] = test system: HUVEC co-cultured with human fibroblasts; test: HUVEC co-culture model of angiogenesis; format: cell-based; conditions: 14 days co-culture, 10-200 nM
Description: Antibodies 4H2, 15C4 and 3A11 were tested to see if they elicited an inhibition of vessel growth in the co-culture model of angiogenesis. HUVEC were co-cultured with human fibroblasts for 14 days, and then fixed and immunostained with an antibody against PECAM. Avastin was included as a positive control, and all four mAbs were tested at 10, 25, 50, 100 and 200 nM. There were two important observations from this experiment.

B16/F0 tumours = test: B16/F0 subcutaneous tumour vasculature; format: in vivo, mouse
Description: The adherent cell line B16/F0 was harvested and single-cell suspensions of 1×10^6 cells in 100 μl PBS was injected subcutaneously into the lower back of C57B1/6 mice. Tumours were measured every other day with a caliper and volume was calculated using the formula: V=(4/3)×π×(L/2)×(W/2)×(H/2). The mice were sacrificed at defined time intervals or after the tumors reached 2000 mm^3. Treatment with 15C4 or IgG was started after three days at 50 mg/kg by intraperitoneal injections, and repeated every 3 days. Vessels were identified by CD31 immunohistochemistry on tumour sections (FIG. 11).

B16-F0 tumours = test: B16-F0 tumour, 15C4 with cisplatin; format: in vivo, mouse; conditions: vs IgG and cisplatin
Description: The adherent cell line B16-F0 was harvested and a single-cell suspension of 1×10^6 cells in 100 μl PBS was injected subcutaneously into the lower back of C57B1/6 male mice. Treatment with 15C4 or IgG was started after three days at 50 mg/kg by intraperitoneal injections, and repeated every 3 days. Suboptimal doses of Cisplatin (2.5 mg/kg) were administered to mice bearing tumours with an average size of 0.5 cm^3 every other day by intraperitoneal injections. Tumours were measured with callipers every other day and volume was calculated using the formula: V=(4/3)×π×(L/2)×(W/2)×(H/2).
Cisplatin and IgG or 15C4 treated tumours were immersion fixed in 4% PFA overnight at 4° C. and then immersed in 30% sucrose overnight at 4° C. Tumour tissue was then OCT embedded and frozen for sectioning (40 μm). TUNEL assay was performed using an ApopTag in situ apoptosis detection kit according to manufacturers protocol (Merk Millipore, USA).
The DNA double strand break marker γ-H2AX was stained for in tumour sections, indicating cisplatin-induced DNA damage.

Ka (human Lrg1 [1]; human Lrg1 immobilized on chip, mAbs at 20-100 nM): 1.10E+05 | dissociation rate constant (kd) (human Lrg1 [1]; rate constant column beside Ka, human Lrg1 immobilized on chip, mAbs at 20-100 nM): 1.40E−07 | Kd (human Lrg1 [1]; text summary of Biacore data, read-out: binding affinities for human Lrg1): 1.2 pM
B1: 15C4: mouse monoclonal antibody against human Lrg1, VH SEQ ID NO: 1, VL SEQ ID NO: 2 (antibody, V domains shown)
VH: QVQLQQSGDEVVRPGSSVKISCKASGYTFSGYWMNWVKQRPGQGLQWIGQIYPGDGDTNYNGKFKGKATLTADKSSSTAYMQLSTLTSEDSAIYFCARSITTVVLDYWGQGTTLTVSS
VL: DIVLTQSPVSLAVSLGQRATISCRASQSVSTSGYSFMHWYQQKPGQPPKFLIKYASNLESGVPARFSGSGSGTDFTLNIHPVEEEDTATYYCQHSWEMPLTFGAGTKLELK
modifications: 15C4 Variable Heavy Chain; 15C4 Variable light chain
affinity for human Lrg1 (in words) (human Lrg1 [1]; Biacore): affinity in the picomolar range; also recorded: bound with especially high affinity; also recorded: very high affinity; also recorded: much higher affinity for human Lrg1 | cross-reactivity with rodent Lrg1 [2]: None of antibodies 4H2, 3A11 or 15C4 exhibited strong cross-reactivity with rodent Lrg1 | recognition of Lrg1 band on western blot (human Lrg1 [3]): strongly recognise a single band of Lrg1 at 50 kD in the conditioned medium and vitreous | inhibition of vessel growth [4]: equally effective | endothelial and pericyte co-localisation (B16/F0 tumours; C57BL6 mice, CD31 with αSMA or NG2, vs IgG): increases endothelial and pericyte co-localisation | small vessels / distribution of vessel sizes (CD31) (B16/F0 tumours; C57Bl/6 mice, 50 mg/kg IP every 3 days, vs IgG controls): Fewer small vessels | replication of Lrg1 knockout tumour vessel phenotype (B16/F0 tumours; wild type mice, 50 mg per kg): drives normalisation of tumour vessels; also recorded: These results were mimicked; also recorded: blood vessels are more functional and mature | tumor growth (B16-F0 tumours; 15C4 50 mg/kg IP every 3 days in combination with cisplatin 2.5 mg/kg): significant reduction in tumor growth | apoptosis (TUNEL) (B16-F0 tumours; in combination with cisplatin): Significantly more apoptosis | nuclei with γ-H2AX foci (B16-F0 tumours; in combination with cisplatin): Significantly more nuclei with γ-H2AX foci
